These results are taken from the supplement of paper PMC10567573.

Sequences and labels used below:
B1: SLC19A2 (parent)
chain: FHHIPSTCQRVNGIKVQNGGIVTD
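Note: lentivirally expressed fusions sorted by FACS into six bins by GFP to DsRed ratio, PSI derived from sequencing read proportions per bin multiplied by bin number.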

Variants of B1 are the subject of this data set. The data set can be described thus: protein stability index of a GFP-peptide fusion (GPS, HEK-293T) (PSI 1-6); higher = more stable. As to conditions: c terminus: a fixed tail appended.
In the case of FHHIPSTCQRVNGIKVPNGGIVTD, the protein stability index is 2.35. In the case of FHHIPSTCQRVNGIKVANGGIVTD it was 1.89.

In the case of FHHIPSTCQRVNGIKVENGGIVTD, the protein stability index is 2.28. For the variant FHHIPSTCQRVNGIKVINGGIVTD, the protein stability index was 1.6. The figure for FHHIPSTCQRVNGIKVGNGGIVTD is 1.87; for FHHIPSTCQRVNGIKVVNGGIVTD it is 2.1. FHHIPSTCQRVNGIKVSNGGIVTD: the protein stability index came out at 2.72. On to FHHIPSTCQRVNGIKVTNGGIVTD, for which the protein stability index was determined as 1.67. For the variant FHHIPSTCQRVNGIKVHNGGIVTD, the protein stability index was found to be 2.08. With FHHIPSTCQRVNGIKVLNGGIVTD, the protein stability index was determined as 1.34. Regarding FHHIPSTCQRVNGIKVFNGGIVTD, the protein stability index came to 1.41. As to FHHIPSTCQRVNGIKVKNGGIVTD, the protein stability index was 2.66.

For the variant FHHIPSTCQRVNGIKVRNGGIVTD, the protein stability index is 2.81. In the case of FHHIPSTCQRVNGIKVNNGGIVTD, the protein stability index stood at 2.17. The figure for FHHIPSTCQRVNGIKVCNGGIVTD is 2.37; for FHHIPSTCQRVNGIKVYNGGIVTD it is 2.31.

FHHIPSTCQRVNGIKVMNGGIVTD: the protein stability index was 1.09. With FHHIPSTCQRVNGIKVDNGGIVTD, the protein stability index was determined as 2.05. The figure for FHHIPSTCQRVNGIKVWNGGIVTD is 1.62. Regarding FHHIPSTCQRVNGIKVQQGGIVTD, the protein stability index amounted to 1.48. With FHHIPSTCQRVNGIKVQRGGIVTD, the protein stability index came out at 2.14. Take FHHIPSTCQRVNGIKVQFGGIVTD: the protein stability index was found to be 2.04. Consider FHHIPSTCQRVNGIKVQAGGIVTD, for which the protein stability index stood at 1.77. Consider FHHIPSTCQRVNGIKVQKGGIVTD, for which the protein stability index worked out at 1.68. The figure for FHHIPSTCQRVNGIKVQYGGIVTD is 1.63; for FHHIPSTCQRVNGIKVQMGGIVTD it is 1.98; for FHHIPSTCQRVNGIKVQEGGIVTD it is 2.01. Turning to FHHIPSTCQRVNGIKVQTGGIVTD, the protein stability index came out at 1.65. Regarding FHHIPSTCQRVNGIKVQCGGIVTD, the protein stability index came out at 1.52. As for FHHIPSTCQRVNGIKVQLGGIVTD, the protein stability index turned out to be 1.28. Consider FHHIPSTCQRVNGIKVQSGGIVTD, for which the protein stability index turned out to be 1.92. In the case of FHHIPSTCQRVNGIKVQPGGIVTD it was 2.08. For the variant FHHIPSTCQRVNGIKVQDGGIVTD, the protein stability index amounted to 1.81. The figure for FHHIPSTCQRVNGIKVQIGGIVTD is 2.94. The figure for FHHIPSTCQRVNGIKVQGGGIVTD is 3.96. The figure for FHHIPSTCQRVNGIKVQNGGIVYD is 1.75; for FHHIPSTCQRVNGIKVQNGGIVID it is 1.57; for FHHIPSTCQRVNGIKVQNGGIVRD it is 4.73. As for FHHIPSTCQRVNGIKVQNGGIVFD, the protein stability index turned out to be 1.81. In the case of FHHIPSTCQRVNGIKVQNGGIVWD it was 1.45; in that of FHHIPSTCQRVNGIKVQNGGIVPD, 1.89. In the case of FHHIPSTCQRVNGIKVQNGGIVQD it was 2.44; in that of FHHIPSTCQRVNGIKVQNGGIVDD, 2.53; in that of FHHIPSTCQRVNGIKVQNGGIVGD, 1.67.

Take FHHIPSTCQRVNGIKVQNGGIVHD: the protein stability index was 3.31. The figure for FHHIPSTCQRVNGIKVQNGGIVVD is 1.67; for FHHIPSTCQRVNGIKVQNGGIVCD it is 2.27. The figure for FHHIPSTCQRVNGIKVQNGGIVKD is 2.11. The figure for FHHIPSTCQRVNGIKVQNGGIVED is 1.85; for FHHIPSTCQRVNGIKVQNGGIVLD it is 1.95.

In the case of FHHIPSTCQRVNGIKVQNGGIVND, the protein stability index turned out to be 1.86. In the case of FHHIPSTCQRVNGIKVQNGGIVAD it was 2.4. In the case of FHHIPSTCQRVNGIKVQNGGIVSD it was 2.18; in that of FHHIPSTCQRVNGIKVQNGGIVMD, 2.15; in that of FHHIPSTCQRVNGIKVQNGGIVTG, 1.16. The figure for FHHIPSTCQRVNGIKVQNGGIVTE is 2.06; for FHHIPSTCQRVNGIKVQNGGIVTA it is 2.16. As to FHHIPSTCQRVNGIKVQNGGIVTK, the protein stability index came out at 2.64. The figure for FHHIPSTCQRVNGIKVQNGGIVTY is 3.21; for FHHIPSTCQRVNGIKVQNGGIVTS it is 2.12; for FHHIPSTCQRVNGIKVQNGGIVTH it is 2.11. In the case of FHHIPSTCQRVNGIKVQNGGIVTQ it was 1.94; in that of FHHIPSTCQRVNGIKVQNGGIVTM, 2.38; in that of FHHIPSTCQRVNGIKVQNGGIVTC, 1.5. In the case of FHHIPSTCQRVNGIKVQNGGIVTP it was 1.72; in that of FHHIPSTCQRVNGIKVQNGGIVTT, 1.7; in that of FHHIPSTCQRVNGIKVQNGGIVTR, 1.89.

Turning to FHHIPSTCQRVNGIKVQNGGIVTI, the protein stability index came to 2.06. The figure for FHHIPSTCQRVNGIKVQNGGIVTN is 2.47; for FHHIPSTCQRVNGIKVQNGAIVTD it is 1.59.

As for FHHIPSTCQRVNGIKVQNGSIVTD, the protein stability index was determined as 2.34. Take FHHIPSTCQRVNGIKVQNGVIVTD: the protein stability index turned out to be 1.5. Consider FHHIPSTCQRVNGIKVQNGMIVTD, for which the protein stability index was determined as 2.18. The figure for FHHIPSTCQRVNGIKVQNGFIVTD is 1.65. On to FHHIPSTCQRVNGIKVQNGRIVTD, for which the protein stability index was determined as 1.73. As for FHHIPSTCQRVNGIKVQNGKIVTD, the protein stability index came out at 1.87. The figure for FHHIPSTCQRVNGIKVQNGIIVTD is 1.9; for FHHIPSTCQRVNGIKVQNGEIVTD it is 1.95; for FHHIPSTCQRVNGIKVQNGCIVTD it is 1.8. As for FHHIPSTCQRVNGIKVQNGQIVTD, the protein stability index came to 1.8. FHHIPSTCQRVNGIKVQNGHIVTD: the protein stability index came out at 2.19. In the case of FHHIPSTCQRVNGIKVQNGNIVTD it was 2.29; in that of FHHIPSTCQRVNGIKVQNGDIVTD, 2.2; in that of FHHIPSTCQRVNGIKVQNGTIVTD, 1.76. FHHIPSTCQRVNGIKVQNGLIVTD: the protein stability index amounted to 1.64.

As for FHHIPSTCQRVNGIKVQNGPIVTD, the protein stability index was 2.2. FHHIPSTCQRVNGIKVQNNGIVTD: the protein stability index was 2.37. In the case of FHHIPSTCQRVNGIKVQNPGIVTD it was 2.04. With FHHIPSTCQRVNGIKVQNQGIVTD, the protein stability index came out at 2.16. Take FHHIPSTCQRVNGIKVQNMGIVTD: the protein stability index worked out at 1.27. On to FHHIPSTCQRVNGIKVQNVGIVTD, for which the protein stability index is 2.32. In the case of FHHIPSTCQRVNGIKVQNSGIVTD it was 1.51; in that of FHHIPSTCQRVNGIKVQNYGIVTD, 1.74. In the case of FHHIPSTCQRVNGIKVQNDGIVTD it was 2.36.
